Conditions: Rhodococcus erythropolis; pH 7.1; Thermal; Fluorescence; Potassium phosphate 50mM; transition: 2; reversible: no; whole UniProt chain shown

B1: Limonene-1,2-epoxide hydrolase wild type, Q9ZAG3 (protein)
chain: MTSKIEQPRWASKDSAAGAASTPDEKIVLEFMDALTSNDAAKLIEYFAEDTMYQNMPLPPAYGRDAVEQTLAGLFTVMSIDAVETFHIGSSNGLVYTERVDVLRALPTGKSYNLSILGVFQLTEGKITGWRDYFDLREFEEAVDLPLRG
B1 showed a Tm of 48.8 °C.

From FireProtDB (doi:10.1093/protein/gzt061)
